Data taken from patent publication US20170342349A1, “STABILIZED ENZYME COMPOSITIONS” (NOVOZYMES A/S, priority 2014, published 2017).

How the values were obtained:
[1] = biological target: TY145 (SEQ ID NO 3) variant S173P + S175P + F180Y; assay: Ki fitted from Suc-AAPF-pNA activity in Model B detergent; IF relative to SEQ ID NO 3 comprising S173P + S175P + F180Y (the reference itself)
[2] = biological target: Protease C (SEQ ID NO 6) variant N60F + S100I (Lederbergia lenta (Bacillus lentus)) (UniProt P29600); assay: Ki fitted from Suc-AAPF-pNA activity in Model B detergent; IF relative to SEQ ID NO 6
[3] = biological target: Protease C (SEQ ID NO 6) variant Y166F (Lederbergia lenta (Bacillus lentus)) (UniProt P29600); assay: as above
[4] = biological target: Protease C (SEQ ID NO 6) variant N60H (Lederbergia lenta (Bacillus lentus)) (UniProt P29600); assay: as above
[5] = biological target: Protease C (SEQ ID NO 6) variant V103A (Lederbergia lenta (Bacillus lentus)) (UniProt P29600); assay: as above
[6] = biological target: Protease C (SEQ ID NO 6) variant N60H + S100I (Lederbergia lenta (Bacillus lentus)) (UniProt P29600); assay: as above
[7] = biological target: Protease C (SEQ ID NO 6) variant S100I (Lederbergia lenta (Bacillus lentus)) (UniProt P29600); assay: as above
[8] = biological target: Protease C (SEQ ID NO 6) variant S100I + Y166F (Lederbergia lenta (Bacillus lentus)) (UniProt P29600); assay: as above
[9] = biological target: Protease C (SEQ ID NO 6) variant L134V (Lederbergia lenta (Bacillus lentus)) (UniProt P29600); assay: as above
[10] = biological target: Protease C (SEQ ID NO 6) variant N60F (Lederbergia lenta (Bacillus lentus)) (UniProt P29600); assay: as above
[11] = biological target: Protease C (SEQ ID NO 6) variant N60A (Lederbergia lenta (Bacillus lentus)) (UniProt P29600); assay: as above
[12] = biological target: Protease C (SEQ ID NO 6) variant S100I + L134V (Lederbergia lenta (Bacillus lentus)) (UniProt P29600); assay: as above
[13] = biological target: Protease P (SEQ ID NO 5) variant G127S + G128P + G129S + Y130P + D131S + M134L; assay: Ki fitted from Suc-AAPF-pNA activity in Model B detergent; IF relative to SEQ ID NO 5
[14] = biological target: Protease P (SEQ ID NO 5) variant M103S; assay: as above
[15] = biological target: Protease P (SEQ ID NO 5) variant G128P; assay: as above
[16] = biological target: Protease P (SEQ ID NO 5) variant Q64N; assay: as above
[17] = biological target: Protease P (SEQ ID NO 5) variant M103A; assay: as above
[18] = biological target: Protease P (SEQ ID NO 5) variant Q64F; assay: as above
[19] = biological target: TY145 (SEQ ID NO 3) variant S114V + S173P + S175P; assay: Ki fitted from Suc-AAPF-pNA activity in Model B detergent; IF relative to SEQ ID NO 3 comprising S173P + S175P
[20] = biological target: TY145 (SEQ ID NO 3) variant I150L + S173P + S175P; assay: as above
[21] = biological target: TY145 (SEQ ID NO 3) variant Q70N + S173P + S175P; assay: as above
[22] = biological target: TY145 (SEQ ID NO 3) variant S114V + I150L + S173P + S175P; assay: as above
TY145 (SEQ ID NO 3) variant S114V + I150L + S173P + S175P, sequence (chain, as listed by the source S114V I150L S173P S175P S114V I150L S173P S175P limits assumed): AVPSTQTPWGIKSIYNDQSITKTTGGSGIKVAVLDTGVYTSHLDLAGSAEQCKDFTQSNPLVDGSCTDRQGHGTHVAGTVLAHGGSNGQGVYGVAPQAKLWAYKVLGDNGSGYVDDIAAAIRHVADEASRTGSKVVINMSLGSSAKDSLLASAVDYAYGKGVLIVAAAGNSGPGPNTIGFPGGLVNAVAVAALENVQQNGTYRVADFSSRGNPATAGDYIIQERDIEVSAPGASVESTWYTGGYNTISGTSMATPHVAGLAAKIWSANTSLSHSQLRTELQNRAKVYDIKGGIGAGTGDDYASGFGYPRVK

TY145 (SEQ ID NO 3) variant Q70N + S173P + S175P, sequence (chain, as listed by the source Q70N S173P S175P Q70N S173P S175P limits assumed): as the sequence (chain, as listed by the source S114V I150L S173P S175P S114V I150L S173P S175P limits assumed) above, with Q70N, V114S, L150I counted along it
TY145 (SEQ ID NO 3) variant S173P + S175P + F180Y, sequence (chain, as listed by the source S173P S175P F180Y S173P S175P F180Y limits assumed): as the sequence (chain, as listed by the source S114V I150L S173P S175P S114V I150L S173P S175P limits assumed) above, with V114S, L150I, F180Y counted along it
TY145 (SEQ ID NO 3) variant I150L + S173P + S175P, sequence (chain, as listed by the source I150L S173P S175P I150L S173P S175P limits assumed): as the sequence (chain, as listed by the source S114V I150L S173P S175P S114V I150L S173P S175P limits assumed) above, with V114S counted along it
TY145 (SEQ ID NO 3) variant S114V + S173P + S175P, sequence (chain, as listed by the source S114V S173P S175P S114V S173P S175P limits assumed): as the sequence (chain, as listed by the source S114V I150L S173P S175P S114V I150L S173P S175P limits assumed) above, with L150I counted along it

## Inhibitor 1: Cbz-Gly-Ala-NHCH(CH2C6H4pOH)C(OH)(SO3Na)-H (peptide)
[1]
  IF (binding constant improvement factor, relative Ki): 1
[2]
  IF (binding constant improvement factor, relative Ki): 11.3
[3]
  IF (binding constant improvement factor, relative Ki): 1.31
[4]
  IF (binding constant improvement factor, relative Ki): 1.24
[5]
  IF (binding constant improvement factor, relative Ki): 1.49
[6]
  IF (binding constant improvement factor, relative Ki): 6.65
[7]
  IF (binding constant improvement factor, relative Ki): 6.46
[8]
  IF (binding constant improvement factor, relative Ki): 11.3
[9]
  IF (binding constant improvement factor, relative Ki): 2.89
[10]
  IF (binding constant improvement factor, relative Ki): 3.25
[11]
  IF (binding constant improvement factor, relative Ki): 1.22
[12]
  IF (binding constant improvement factor, relative Ki): 15.1
[13]
  IF (binding constant improvement factor, relative Ki): 1.05
[14]
  IF (binding constant improvement factor, relative Ki): 1.73
[15]
  IF (binding constant improvement factor, relative Ki): 1.19
[16]
  IF (binding constant improvement factor, relative Ki): 1.38
[17]
  IF (binding constant improvement factor, relative Ki): 2.31
[18]
  IF (binding constant improvement factor, relative Ki): 3.44
[19]
  IF (binding constant improvement factor, relative Ki): 1.83
[20]
  IF (binding constant improvement factor, relative Ki): 2.05
[21]
  IF (binding constant improvement factor, relative Ki): 4.48
[22]
  IF (binding constant improvement factor, relative Ki): 6.14
